Results taken from the RNAGym collection of RNA variant scans (doi:10.7554/elife.80360).

B1: Hairpin Ribozyme (parent)
chain: GUCCUCUUUCACGUGCGCGUGAAAGAGAGAAGUGAACCAGAGAAACACACGUUGUGGUAUAUUACCUGGUA

Variants of: B1
Test: self-cleavage, relative activity (ratio to wild type); higher = more cleavage; co-transcriptional

Compared with U52C G56C, U52C G56U is lower in self-cleavage: 0.165 for the first, 0.149 for the second.

Compared with U52C U58G, U52G G68U is lower in self-cleavage: 0.606 for the first, 0.136 for the second.

Going from U52G G68C to G51A U53C, the self-cleavage rises from 0.283 to 1.28.

Compared with U52G U63G, U52G U63A is higher in self-cleavage: 0.134 for the first, 0.139 for the second.

First: U52A G69A
Second: U52A G69U
The self-cleavage of the first is higher: 0.464 for the first, 0.325 for the second.

Going from G51U G69A to G51U G69U, the self-cleavage falls from 0.457 to 0.287.

Compared with G51C U53A, U53G G54U is lower in self-cleavage: 0.72 for the first, 0.49 for the second.

Compared with U53G G54C, G51U U62A is lower in self-cleavage: 0.551 for the first, 0.25 for the second.

Compared with U53A A71C, U52G C66U is lower in self-cleavage: 1.41 for the first, 0.474 for the second.

Going from U52A G54C to U52A G54U, the self-cleavage rises from 0.47 to 0.64.

First: U52G U70C
Second: U53G A61G
The self-cleavage of the first is higher: 0.605 for the first, 0.313 for the second.

Compared with U53G A61C, U53C U62G is higher in self-cleavage: 0.0932 for the first, 0.122 for the second.

First: G54A A61U
Second: G51C U60G
The self-cleavage of the first is lower: 0.254 for the first, 0.62 for the second.

First: U53G U63G
Second: G51U U52G
The self-cleavage of the first is lower: 0.156 for the first, 0.648 for the second.

Compared with G51U U52A, U53C U58C is higher in self-cleavage: 1.1 for the first, 1.26 for the second.

Compared with U53C A59C, U53C A59U is lower in self-cleavage: 0.217 for the first, 0.166 for the second.

Compared with U52C U62A, G51A U67A is lower in self-cleavage: 0.32 for the first, 0.291 for the second.

Compared with G51A U67C, U52C G69U is lower in self-cleavage: 0.296 for the first, 0.21 for the second.

Compared with U52G U67G, U53C U60A is higher in self-cleavage: 0.156 for the first, 0.635 for the second.

First: U53C U60G
Second: G51C A71C
The self-cleavage of the first is lower: 0.557 for the first, 1.3 for the second.

Going from G51C A71G to U53G A71U, the self-cleavage falls from 0.814 to 0.635.

Going from U53G A71C to G51C A61C, the self-cleavage falls from 1.29 to 0.0996.

First: U53G U55C
Second: U53G U55A
The self-cleavage of the first is higher: 0.369 for the first, 0.269 for the second.

Going from G51C G56C to U53G U58A, the self-cleavage rises from 0.065 to 0.394.

Going from G51U A64G to G51A U58C, the self-cleavage rises from 0.544 to 1.09.

First: G51C U70G
Second: U52C U67C
The self-cleavage of the first is higher: 0.704 for the first, 0.274 for the second.

Compared with U53G A64U, U52A U58A is higher in self-cleavage: 0.144 for the first, 0.818 for the second.

First: U52A U58G
Second: U52A U58C
The self-cleavage of the first is lower: 0.678 for the first, 0.881 for the second.

Compared with U52G G56U, U52C U60A is higher in self-cleavage: 0.131 for the first, 1.14 for the second.

Compared with U53G G69U, U53C A64U is lower in self-cleavage: 0.279 for the first, 0 for the second.

Going from U53C A64C to U52C G57C, the self-cleavage falls from 0.278 to 0.123.

Compared with U52C G57A, U52G U62C is lower in self-cleavage: 0.223 for the first, 0.126 for the second.

Compared with U52G U62G, G54A A59U is higher in self-cleavage: 0.0994 for the first, 0.148 for the second.

Going from G54A A59G to U52G A59G, the self-cleavage rises from 0.17 to 0.25.

Going from U52G A59C to G51C A59U, the self-cleavage falls from 0.206 to 0.172.

Compared with G51C A59G, G51U A71G is higher in self-cleavage: 0.166 for the first, 1.24 for the second.

First: U52A C65G
Second: U52A U60G
The self-cleavage of the first is lower: 0.258 for the first, 0.54 for the second.

Going from G51U C66A to G51U C65G, the self-cleavage rises from 0.192 to 0.354.

Going from U53G G57U to U53G G57A, the self-cleavage rises from 0.164 to 0.178.

Compared with U53C C65U, U52C U70G is higher in self-cleavage: 0.274 for the first, 0.988 for the second.

Compared with U52C U70C, U52C U53C is lower in self-cleavage: 1.11 for the first, 1.07 for the second.

First: U52C U53G
Second: U53A G54A
The self-cleavage of the first is higher: 1 for the first, 0.68 for the second.

Going from G51U U58C to G51U U58G, the self-cleavage falls from 0.982 to 0.797.

Going from U53A A59C to G51U U70A, the self-cleavage rises from 0.0694 to 1.1.

First: G51U U70C
Second: G51U U70G
The self-cleavage of the first is higher: 1.01 for the first, 0.887 for the second.

Going from U52C A64C to U52C A64G, the self-cleavage rises from 0.128 to 0.546.

Going from G51U G56U to G51U G56A, the self-cleavage rises from 0.0869 to 0.153.

First: U52C U63G
Second: G51C U67A
The self-cleavage of the first is higher: 0.341 for the first, 0.123 for the second.

Going from G54A to G51C U52C, the self-cleavage rises from 0.583 to 1.16.

First: U53C G57U
Second: U53G G56C
The self-cleavage of the first is higher: 0.234 for the first, 0.125 for the second.

First: U53G G56A
Second: U53G G56U
The self-cleavage of the first is lower: 0.195 for the first, 0.223 for the second.

First: U52A U55A
Second: U52A U55C
The self-cleavage of the first is lower: 0.33 for the first, 0.438 for the second.

Compared with G51U U67A, U52A G56A is higher in self-cleavage: 0.236 for the first, 0.256 for the second.

Compared with U53A U60A, U52G G57A is lower in self-cleavage: 1.08 for the first, 0.181 for the second.

Compared with U52G G57U, U52G G57C is lower in self-cleavage: 0.232 for the first, 0.216 for the second.

Compared with U52G U58C, U52G U58A is lower in self-cleavage: 0.707 for the first, 0.452 for the second.

Compared with U52A U67G, G51C G68C is lower in self-cleavage: 0.408 for the first, 0.322 for the second.

First: G51C G68A
Second: G51A U63G
The self-cleavage of the first is higher: 0.254 for the first, 0.135 for the second.

Going from U52A G57C to G51A U62A, the self-cleavage rises from 0.0886 to 0.137.

Going from G51A U62C to U53A G57U, the self-cleavage falls from 0.364 to 0.181.

First: U53A G57A
Second: U52A U70C
The self-cleavage of the first is lower: 0.14 for the first, 0.801 for the second.

First: U52A U70A
Second: U52A U70G
The self-cleavage of the first is lower: 0.825 for the first, 0.86 for the second.

Going from U52G C65U to U53A U63C, the self-cleavage falls from 0.302 to 0.156.

Going from U52C C65U to U52C C65A, the self-cleavage rises from 0.471 to 1.2.

First: G51C C66U
Second: G51C C66A
The self-cleavage of the first is higher: 0.452 for the first, 0.184 for the second.

First: U53A C66U
Second: U52A A64G
The self-cleavage of the first is higher: 0.649 for the first, 0.603 for the second.

Going from U52A A64C to U53G U62C, the self-cleavage rises from 0.253 to 0.281.

First: U53A U62A
Second: U53A U62G
The self-cleavage of the first is higher: 0.266 for the first, 0.146 for the second.

Compared with U52G U60C, U53A U58A is lower in self-cleavage: 1.08 for the first, 0.746 for the second.

First: U52A A61C
Second: U52C A71U
The self-cleavage of the first is lower: 0.256 for the first, 0.913 for the second.

First: U52G G69C
Second: G51U A59C
The self-cleavage of the first is higher: 0.478 for the first, 0.103 for the second.

Going from U52G A71C to U52G A71G, the self-cleavage falls from 1.32 to 0.654.

Compared with U53C U70A, G51U A61C is lower in self-cleavage: 1.09 for the first, 0.109 for the second.

First: G51A U70C
Second: G51A U70A
The self-cleavage of the first is higher: 1.1 for the first, 1.09 for the second.

First: U53A A64U
Second: U52A G68A
The self-cleavage of the first is lower: 0.143 for the first, 0.337 for the second.

Compared with U52A G68U, G51U U53A is higher in self-cleavage: 0.309 for the first, 1.07 for the second.

First: G51U U53C
Second: U52G U53G
The self-cleavage of the first is lower: 0.777 for the first, 1.39 for the second.

First: U52G U53A
Second: U52A U63C
The self-cleavage of the first is higher: 0.857 for the first, 0.32 for the second.

Going from U52A U63A to U52C U55C, the self-cleavage rises from 0.424 to 0.536.

First: U52C U55A
Second: G51U
The self-cleavage of the first is lower: 0.318 for the first, 1.03 for the second.

First: G51C
Second: U53G A59C
The self-cleavage of the first is higher: 0.876 for the first, 0.166 for the second.

Going from U53G A59G to U52C A59U, the self-cleavage rises from 0.114 to 0.115.

Compared with U52C C66G, G51U G68C is higher in self-cleavage: 0.244 for the first, 0.274 for the second.

With G51U G68A the self-cleavage was 0.312.
